Experimental data from patent publication US20240218057A1 (ROCKEFELLER UNIVERSITY, published 2024).

What follows are binders tested against T1, SARS-COV-2 RBD (SARS-COV-2, UniProt P0DTC2 319-539) (assay: ELISA, RBD coated on plate).
T1 construct: also called WT RBD

Binder | EC50
C985 (antibody, V domains shown) VH: QVQLVQSGAEVKKPGASVKVSCKASGYIFTGYYMHWVRQAPGQGLEWMGRINPNSGGSRYAEKFQGRVTMTRDTSIITAFMELRGLKSDDTAVYYCAREPIEAVPAGIIVNYYYMDVWGNGTTVTVSS VL: QSALTQPASVSGSPGQSITISCTGTSSDVGGYNYVSWYQQHPGKAPKLMIYDVTSRPSGVSDRFSGSKSGTTASLTISGLQAEDEADYYCSSFTSAFTLVVFGGGTKLTVL | 3.67 ng/mL
C986 (antibody, V domains shown) VH: EVQLVQSGAEVKKPGETLKISCKGSGDSFSNYWIGWVRQSPGKGLEWMAIVYPGDSDARYSPSFQGQVTISADKSVTTAYLKWSSLKASDTAIYYCVRGLPVDWYFDLWGRGTLVTVSS VL: QSVLTQPPSVSGAPEQRVTISCTGSSSNIGAGHDVHWYQQLPGTAPKLLIYNNNNRPSGVPDRFSGSKSGASASLAISGLQAEDEAEYYCQSYDKSLSVLYVLGTGTKVTV | 3.36 ng/mL
C987 (antibody, V domains shown) VH: QVQLQESGPGLVKPSETLSLTCNVSGDIINKYYWSWIRQSPGKGLEWIGYIYYSGTTYYNPSLKSRVTMSVGTSKQQFSLRLTSVTAADTAVYYCARMLSTEWSFNWFDPWGPGTLVTVSS VL: SYELTQPPSVSVSPGQAASITCSGDKLGDKFACWYQQKPGQSPVLVIYQNDKRPTGIPERFSGSNSGNTATLTISGTQAMDEADYFCQAWDSTSASVFGTGTKVTVL | 3.11 ng/mL
C990 (antibody, V domains shown) VH: EVQLVESGGGLVRPGGSLRLSCAASGFTVGSNFMSWVRQAPGKGLEWVSLIYSGGGTHYAESVKGRFTISRDKSKNTLYLQMNSLRAEDTAVYYCANQGYYYYMDVWGKGTTVTVS VL: QSALTQPASVSGSPGQSITISCTGTSSDVGAYNYVSWHQHHPGKAPKLIIYDVSNRPSGVSNRFSGSKSGNTASLTISGLQAEDEADYYCTSYTNTTTPWVFGGGTKLTVL | 1.85 ng/mL
C992 (antibody, V domains shown) VH: QVQLQESGPGLVKPSQTLSLTCTVSGGSISNGGYFWTWIRQHPVKGLEWIGYIYYSGSPHYNPSLKSRLSISLDTFKNQFSLNLSSVTAADTAVYYCARGDTFGRGYYFDFWGQGTLVTVSS VL: SYELTQPPSVSVAPGQTARITCGGNNIGTNSMHWYQQKPGQAPVLVVFDDSDRPSGIPERFSGSNSGNTATLTISRVEAGDEADYHCQVWDRSSDRPWVFGGGTKLTVL | 3.24 ng/mL
C993 (antibody, V domains shown) VH: EVQLLESGGGLVQPGGSLRLSCAASGFPFSIYAMSWVRQAPGKGLEWVSGMRGTTGTTYYADSVKGRFAISRDNSKNMLHLQMNSLRAEDTAVYYCAKSDHGDYVIGAFDIWGQGTMVTVSS VL: QSALTQPPSASGSPGQSVTISCTGTSGDVGGYNYVSWYQQHPGKAPKLMIYEVSKRPSGVPDRFSGSKSGNTASLTVSGLQAEDEADYYCNSYAGSNNWVFGGGTKLTVL | 2.29 ng/mL
C994 (antibody, V domains shown) VH: QVQLQESGPGLVKPSGTLSLTCAVSGVSISNTNWWNWVRQPPGKGLEWIGEIYHTGSARYNPSLRSRVTISVDKSKNQFSLRLNSATAADTAIYYCARAQTPEFGELLYWGQGALVTVSS VL: DIQMTQSPSSLSASVGDRVTITCRASQSITDHLNWYQQKPGKAPKLLIYAASSLQTGVPSRFSGSGSETDFTLTISTLQPEDFATYYCQQSYGPPTYSFGQGTKLEIK | 2.09 ng/mL
C995 (antibody, V domains shown) VH: EVQLVESGGGLIQPGRSLRLSCTASGFSVGDYAMSWFRQAPGKGLEWVGFLRNQHYGGTAEYAASVKGRFSISTDASKNIVYLQMDSLKTEDTAVYYCARNDRYIVIVPAEMLYWGQGTLVTVSS VL: EIVMTQSPATLSVSPGERATLSCRATESVYSNLAWYQQKPGQAPRLLMYDASTRAPGIPARFSGSGSGTEFTLTISSLQSEDFATYYCQQYSNWPPITFGQGTRLEIK | 3.79 ng/mL
C996 (antibody, V domains shown) VH: EVQLVESGGGLVQPGGSLRLSCVASGFTSTNYDMHWVRQAPGRGLQWVSSIGTAGDTYYPGSVRGRFTISRENAKNSLDLQMNSLRVGDTAVYYCARGQRGYYDRSGYYWGWRAFDIWGQGTMVTVSS VL: SYELTQPPSVSVAPGQTARITCGGNNIGNKSVYWYQQKPGQAPVLVVYDDSGRPSGIPERFSGSNSANTATLTISRVEAGDEADYYCQVWDNNSDQFGGGTKLTVL | 3.07 ng/mL
C997 (antibody, V domains shown) VH: EVQLLESGGGLVQPGGSLRLSCAASGFTFSKDAMSWVRQAPGKGLEWVSTVTGSGTNTYYADSVKGRFTISRDNSNNTLYLQMNSLRAEDTAVYYCANHPLGAAEGYYYYYMDVWGKGTTVTVSS VL: EIVLTQSPGTLSLSPGERGTLSCRASQRVPSSQLAWYQQKSGQAPRLLIYGASSRASGIPDRFSGSGSGTDFTLNISRLEPEDFAVYYCQQYGSLRALTFGGGTKVEIK | 3.49 ng/mL
C998 (antibody, V domains shown) VH: QVQLVQSGAEVKKPGASVKVSCKTSGYTFISYYIHWVRQAPGQGLEWMGIINPDGDNTNYAQKFQGRVTMTRDTSTSTVYMELSSLRFEDTAVYYCARGGAIPALRTAFDIWGQGTMVTVSS VL: DIQMTQSPSTLSASVGDRVTITCRASQSISNWLAWYQQKPGKAPKLLIYKASSLESGVPSRFSGSGSGTEFTLTISSLQPDDFATYYCQEYNSYYFGQGTKLEIK | 2.51 ng/mL
C999 (antibody, V domains shown) VH: QVQLVQSGAEVRRPGASVKVSCKASGYTLTHYYIHWVRQAPGQGLEWVGIINPDGDNTNYAQKFQGRVTMTRDTSTSTVYMELSSLRSEDTAIFYCARGGAIPALRSAFDIWGQGTMVTVSS VL: DIQMTQSPSTLSASVGDRVTITCRASQSINNWLAWYQQKPGKAPKLLIYKASTLESGVPSRFSGSGSGTEFTLTISSLQPDDFATYYCQQYNSYFFGQGTKLEIK | 2.68 ng/mL
C1000 (antibody, V domains shown) VH: QVQLQESGPGLVKPSQTLSLSCTVSGGSISSDDYYWSWIRQPPGKGLEWIGYIYYSGSTYYNSSLKSRVSISVDTSKNQFSLKLSSVTAADTAVYYCARWKRWLQFLYFDYWGQGTLVTVSS VL: QSALTQPRSVSGSPGQSVTISCTGTSSDVGGYSFVSWYQQHPGKAPKVLIYDVDKRPSGVPDRLSGSKSGNTASLTISGLQAEDEADYYCCSYAGSYTLIFGGGTKLTVL | 3.2 ng/mL
C1001 (antibody, V domains shown) VH: QVQLQESGPGLVKPSQTLSLTCTVSGGSISSGDYYWTWIRQPPGKGLEWIGYIFYSGITYYSPSLKSRLTMSIDTSKSQFSLNLSSVTAADTAVYYCARWKRLLQSLHFDYWGQGILVTVSS VL: QSALTQPRSVSGSPGQSVTISCTGTSSDVGSYDYVSWYQQHPGKAPKVMIYGVDERPSGVPHRFSGSKSGNTASLTISGLQADDEADYFCCFYAGSYTLLFGGGTKVTVL | 3.23 ng/mL
C1002 (antibody, V domains shown) VH: EVQLVESGGGLVQPGGSLRLSCAASEFIVSSNYMTWVRQAPGKGLEWVSIMYPGGSTFYADSVKGRFTISRDNSKNTLYLQINRLRAEDTAVYYCARDIAGRLDYWGQGTLVTVSS VL: DIQMTQSPSSLSASVGDRVTITCQASQDINNYLNWYQQKPGKAPKLLIYDASNLETGVPSRFSGSGSGTDFSFTISSLQPEDIATYYCQQYDNLSRLTFGGGTKVEIK | 0.83 ng/mL
C1003 (antibody, V domains shown) VH: QVQLVESGGGVVQPGRSLRLSCAASGFAFSSYGMNWVRQAPGKGLEWVTTVSSDGNVNYYIDSVKGRFTISRDNSKNTLYLQMNSLRGDDTAVYYCAKGPRFGWSYRGGSGFDIWGQGTMVTVSS VL: DIQMTQSPSSLSASVGDRVTITCQASQDISNYLNWYQQKPGKAPKLLIYDASNLETGVPSRFSGSGSGTDFTFTITSLQPEDIATYYCQQYDNLPITFGQGTRLEIK | 1.82 ng/mL
C1006 (antibody, V domains shown) VH: QVQLVQSGAEVRKPGSSVKVSCKASGGPFDQYTFSWVRQAPGQGLEWMARITPVVDLTNYAQKFQGRITIITDKSTSTAYMELSSLRSEDTAIYYCATPLNDYYASGNLGLWGQGTLVTVSS VL: DIQMTQSPSSLSASIGDRVTITCRASQGISYYLAWFQQKPGEAPRSLIYDASSLQSGVPSKFSGSGSGTDFTLTISSLQPEDSATYYCQQYNSYPLTFGGGTKVEIK | 2.04 ng/mL
C1007 (antibody, V domains shown) VH: QVQLVQSGSEMKKPGSSVKVSCKAAGGTLNTHTFSWVRQAPGQGLEWMGRITPTVDLTNYAQKFQGRITITADTSTNTAYLELRRLRSEDTAIYYCATPLNDYYASGNLGLWGQGTLVTVSS VL: DIQMTQSPSSLSASIGDTVTITCRASQGISYYLAWFQRKPGKAPKSLIYDASSLQSGVPSKFSGSGSGTDFTLTISSLQPEDSATYYCQQYSTYPLTFGGGTKVEIK | 3.22 ng/mL
C1008 (antibody, V domains shown) VH: EVQLVESGGGLIQPGGSLRLSCAASGFTVSSNYMSWVRQAPGKGLEWVSVIYSGGSTYYADSVKGRFTISRDNSKNTLYLQMNSLRAEDTAVYYCARVVGYDFWSGYDGGYFDYWGQGTLVTVSS VL: QSALTQPASVSGSPGQSITISCTGTSSDVGSYNLVSWYQQHPGKAPKLMIYEVSKRPSGVSNRFSGSKSGNTASLTISGLQAEDEADYYCCSYAGSSTWVFGGGTKLTVL | 17.2 ng/mL
C1009 (antibody, V domains shown) VH: EVQLVESGGGLLQPGGSLRLSCAASGFSVSSNYMTWVRQAPGKGLEWVAAIYSGDSTYYVDSVKGRFIISRDNSKNTVYLHLSSLRAEDTAVYYCARLVGYDFRSGSDGGYFDYWGHGTLVTVSS VL: QSALTQPASVSGSPGQSITISCTGTSSDIGNYNLVSWYQQHPGKAPKLMIYDVSKRPSGVSNRFSGSKSGNTASLTISGLQAEDETDYYCCSYAGSSTWVFGGGTKLTVL | 1.34 ng/mL
C1010 (antibody, V domains shown) VH: QVQLVESGGGVVQPGRSLRLSCAASGFTFSSYAMHWVRQAPGKGLEWVAVISYDGSNKYYADSVKGRFTISRDNSKNTLYLQMNSLRAEDTAVYYCAKKGQPYCGGDCYFYYFDYWGQGTLVTVSS VL: DIQMTQSPSSLSASLGDRVTITCQASQDISNYLNWYQQKPGKAPKLLIYDASNLETGVPSRFSGSGSGTDFTFTISSLQPEDIATYYCQQYDNLPPITFGQGTRLEIK | 2.45 ng/mL
C1011 (antibody, V domains shown) VH: QVQLVESGGGVVQPGRSLRLSCAVSGFTFSHYAMHWVRQAPGKGLEWVAVISYDGADKYYADSVRGRFTIARDNSKNTLFLQMSSLRPEDTAVYYCAKKGQPYCGGDCHFYYLDYWGQGTLVTVSS VL: DIQMTQSPSSLSASVGDRVTITCQASQDISNHLNWYQQKPGKAPKLLIYDASNLETGVPSRFSGSGSGTDFTFTISSLQAEDIATYYCQQYDNLPPITFGQGTRLEIK | 1.49 ng/mL
